Reference: patent publication US20140087995A1 (published 2014)
Numbered stars: 1 amine (or outer) side, 2 acyl side, 3 side chain; on linkers, the order of the positions; unused ones are H or OH. Bridge positions count the residues as written; N and C are the ends. * marks the point of attachment. C20 diacid = O=C(O)CCCCCCCCCCCCCCCCCCC(=O)*; γGlu = O=C(O)[C@H](CCC(=O)[*:2])N[*:1]

T1: human amylin receptor (amylin 3(a) receptor: human calcitonin receptor with RAMP-3) (human, UniProt P30988 25-474; O60896 24-148)
T1 construct: whole, on cells; also called hAmylin-R; hAmylinR
T1 sequence (looked up) 1: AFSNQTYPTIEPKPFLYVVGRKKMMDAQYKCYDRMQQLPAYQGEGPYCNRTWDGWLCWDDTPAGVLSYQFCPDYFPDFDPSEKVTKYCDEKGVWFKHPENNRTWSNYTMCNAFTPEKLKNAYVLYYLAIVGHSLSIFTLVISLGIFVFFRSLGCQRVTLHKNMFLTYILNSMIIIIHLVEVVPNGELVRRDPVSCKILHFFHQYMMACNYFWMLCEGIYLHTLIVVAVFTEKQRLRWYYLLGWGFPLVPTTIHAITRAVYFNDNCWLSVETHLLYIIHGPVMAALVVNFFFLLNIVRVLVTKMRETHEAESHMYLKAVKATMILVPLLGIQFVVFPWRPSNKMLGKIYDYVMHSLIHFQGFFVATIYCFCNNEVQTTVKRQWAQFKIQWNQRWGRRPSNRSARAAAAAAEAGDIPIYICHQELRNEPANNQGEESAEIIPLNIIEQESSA
T1 sequence (looked up) 2: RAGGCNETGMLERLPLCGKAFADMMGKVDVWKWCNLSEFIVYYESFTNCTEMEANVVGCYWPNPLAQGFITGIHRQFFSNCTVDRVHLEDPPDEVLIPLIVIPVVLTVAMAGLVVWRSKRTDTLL

B1: N^α1-[(4S)-4-carboxy-4-(19-carboxynonadecanoylamino)butanoyl]-[Glu14,Arg17,Pro21,Pro26]-h-amylin (peptide)
peptide: {C20 diacid-γGlu}-KCNTATCATQRLAEFLRHSSPNFGAPLSSTNVGSNTY-NH2
modifications: disulfide 2-7
SMILES: CC(C)C[C@H](NC(=O)[C@H](CCCNC(=N)N)NC(=O)[C@H](CCC(N)=O)NC(=O)[C@@H](NC(=O)[C@H](C)NC(=O)[C@@H]1CSSC[C@H](NC(=O)[C@H](CCCCN)NC(=O)CC[C@H](NC(=O)CCCCCCCCCCCCCCCCCCC(=O)O)C(=O)O)C(=O)N[C@@H](CC(N)=O)C(=O)N[C@@H]([C@@H](C)O)C(=O)N[C@@H](C)C(=O)N[C@@H]([C@@H](C)O)C(=O)N1)[C@@H](C)O)C(=O)N[C@@H](C)C(=O)N[C@@H](CCC(=O)O)C(=O)N[C@@H](Cc1ccccc1)C(=O)N[C@@H](CC(C)C)C(=O)N[C@@H](CCCNC(=N)N)C(=O)N[C@@H](Cc1c[nH]cn1)C(=O)N[C@@H](CO)C(=O)N[C@@H](CO)C(=O)N1CCC[C@H]1C(=O)N[C@@H](CC(N)=O)C(=O)N[C@@H](Cc1ccccc1)C(=O)NCC(=O)N[C@@H](C)C(=O)N1CCC[C@H]1C(=O)N[C@@H](CC(C)C)C(=O)N[C@@H](CO)C(=O)N[C@@H](CO)C(=O)N[C@H](C(=O)N[C@@H](CC(N)=O)C(=O)N[C@H](C(=O)NCC(=O)N[C@@H](CO)C(=O)N[C@@H](CC(N)=O)C(=O)N[C@H](C(=O)N[C@@H](Cc1ccc(O)cc1)C(N)=O)[C@@H](C)O)C(C)C)[C@@H](C)O
notes: also called compound 7
B2: N^α1-[(4S)-4-carboxy-4-(19-carboxynonadecanoylamino)butanoyl]-[Glu14,Arg17,Pro21,Pro27,Asp35,Pro37]-h-amylin (peptide)
peptide: {C20 diacid-γGlu}-KCNTATCATQRLAEFLRHSSPNFGAIPSSTNVGSDTP-NH2
modifications: disulfide 2-7
SMILES: CC[C@H](C)[C@H](NC(=O)[C@H](C)NC(=O)CNC(=O)[C@H](Cc1ccccc1)NC(=O)[C@H](CC(N)=O)NC(=O)[C@@H]1CCCN1C(=O)[C@H](CO)NC(=O)[C@H](CO)NC(=O)[C@H](Cc1c[nH]cn1)NC(=O)[C@H](CCCNC(=N)N)NC(=O)[C@H](CC(C)C)NC(=O)[C@H](Cc1ccccc1)NC(=O)[C@H](CCC(=O)O)NC(=O)[C@H](C)NC(=O)[C@H](CC(C)C)NC(=O)[C@H](CCCNC(=N)N)NC(=O)[C@H](CCC(N)=O)NC(=O)[C@@H](NC(=O)[C@H](C)NC(=O)[C@@H]1CSSC[C@H](NC(=O)[C@H](CCCCN)NC(=O)CC[C@H](NC(=O)CCCCCCCCCCCCCCCCCCC(=O)O)C(=O)O)C(=O)N[C@@H](CC(N)=O)C(=O)N[C@@H]([C@@H](C)O)C(=O)N[C@@H](C)C(=O)N[C@@H]([C@@H](C)O)C(=O)N1)[C@@H](C)O)C(=O)N1CCC[C@H]1C(=O)N[C@@H](CO)C(=O)N[C@@H](CO)C(=O)N[C@H](C(=O)N[C@@H](CC(N)=O)C(=O)N[C@H](C(=O)NCC(=O)N[C@@H](CO)C(=O)N[C@@H](CC(=O)O)C(=O)N[C@H](C(=O)N1CCC[C@H]1C(N)=O)[C@@H](C)O)C(C)C)[C@@H](C)O
notes: also called 11; compound 11
B3: N^α1-[(4S)-4-carboxy-4-(19-carboxynonadecanoylamino)butanoyl]-[Glu14,Arg17,Pro21,Pro27,Pro31]-h-amylin (peptide)
peptide: {C20 diacid-γGlu}-KCNTATCATQRLAEFLRHSSPNFGAIPSSTPVGSNTY-NH2
modifications: disulfide 2-7
SMILES: CC[C@H](C)[C@H](NC(=O)[C@H](C)NC(=O)CNC(=O)[C@H](Cc1ccccc1)NC(=O)[C@H](CC(N)=O)NC(=O)[C@@H]1CCCN1C(=O)[C@H](CO)NC(=O)[C@H](CO)NC(=O)[C@H](Cc1c[nH]cn1)NC(=O)[C@H](CCCNC(=N)N)NC(=O)[C@H](CC(C)C)NC(=O)[C@H](Cc1ccccc1)NC(=O)[C@H](CCC(=O)O)NC(=O)[C@H](C)NC(=O)[C@H](CC(C)C)NC(=O)[C@H](CCCNC(=N)N)NC(=O)[C@H](CCC(N)=O)NC(=O)[C@@H](NC(=O)[C@H](C)NC(=O)[C@@H]1CSSC[C@H](NC(=O)[C@H](CCCCN)NC(=O)CC[C@H](NC(=O)CCCCCCCCCCCCCCCCCCC(=O)O)C(=O)O)C(=O)N[C@@H](CC(N)=O)C(=O)N[C@@H]([C@@H](C)O)C(=O)N[C@@H](C)C(=O)N[C@@H]([C@@H](C)O)C(=O)N1)[C@@H](C)O)C(=O)N1CCC[C@H]1C(=O)N[C@@H](CO)C(=O)N[C@@H](CO)C(=O)N[C@H](C(=O)N1CCC[C@H]1C(=O)N[C@H](C(=O)NCC(=O)N[C@@H](CO)C(=O)N[C@@H](CC(N)=O)C(=O)N[C@H](C(=O)N[C@@H](Cc1ccc(O)cc1)C(N)=O)[C@@H](C)O)C(C)C)[C@@H](C)O
notes: also called 31; compound 31
B4: N^α1-[(4S)-4-carboxy-4-(19-carboxynonadecanoylamino)butanoyl]-[Glu14,Arg17,Pro21,Pro27,His35]-h-amylin (peptide)
peptide: {C20 diacid-γGlu}-KCNTATCATQRLAEFLRHSSPNFGAIPSSTNVGSHTY-NH2
modifications: disulfide 2-7
SMILES: CC[C@H](C)[C@H](NC(=O)[C@H](C)NC(=O)CNC(=O)[C@H](Cc1ccccc1)NC(=O)[C@H](CC(N)=O)NC(=O)[C@@H]1CCCN1C(=O)[C@H](CO)NC(=O)[C@H](CO)NC(=O)[C@H](Cc1c[nH]cn1)NC(=O)[C@H](CCCNC(=N)N)NC(=O)[C@H](CC(C)C)NC(=O)[C@H](Cc1ccccc1)NC(=O)[C@H](CCC(=O)O)NC(=O)[C@H](C)NC(=O)[C@H](CC(C)C)NC(=O)[C@H](CCCNC(=N)N)NC(=O)[C@H](CCC(N)=O)NC(=O)[C@@H](NC(=O)[C@H](C)NC(=O)[C@@H]1CSSC[C@H](NC(=O)[C@H](CCCCN)NC(=O)CC[C@H](NC(=O)CCCCCCCCCCCCCCCCCCC(=O)O)C(=O)O)C(=O)N[C@@H](CC(N)=O)C(=O)N[C@@H]([C@@H](C)O)C(=O)N[C@@H](C)C(=O)N[C@@H]([C@@H](C)O)C(=O)N1)[C@@H](C)O)C(=O)N1CCC[C@H]1C(=O)N[C@@H](CO)C(=O)N[C@@H](CO)C(=O)N[C@H](C(=O)N[C@@H](CC(N)=O)C(=O)N[C@H](C(=O)NCC(=O)N[C@@H](CO)C(=O)N[C@@H](Cc1c[nH]cn1)C(=O)N[C@H](C(=O)N[C@@H](Cc1ccc(O)cc1)C(N)=O)[C@@H](C)O)C(C)C)[C@@H](C)O
notes: also called 18; compound 18
B5: N^α1-[(4S)-4-carboxy-4-(19-carboxynonadecanoylamino)butanoyl]-[Glu14,Arg17,Pro21,Pro27,Pro29]-h-amylin (peptide)
peptide: {C20 diacid-γGlu}-KCNTATCATQRLAEFLRHSSPNFGAIPSPTNVGSNTY-NH2
modifications: disulfide 2-7
SMILES: CC[C@H](C)[C@H](NC(=O)[C@H](C)NC(=O)CNC(=O)[C@H](Cc1ccccc1)NC(=O)[C@H](CC(N)=O)NC(=O)[C@@H]1CCCN1C(=O)[C@H](CO)NC(=O)[C@H](CO)NC(=O)[C@H](Cc1c[nH]cn1)NC(=O)[C@H](CCCNC(=N)N)NC(=O)[C@H](CC(C)C)NC(=O)[C@H](Cc1ccccc1)NC(=O)[C@H](CCC(=O)O)NC(=O)[C@H](C)NC(=O)[C@H](CC(C)C)NC(=O)[C@H](CCCNC(=N)N)NC(=O)[C@H](CCC(N)=O)NC(=O)[C@@H](NC(=O)[C@H](C)NC(=O)[C@@H]1CSSC[C@H](NC(=O)[C@H](CCCCN)NC(=O)CC[C@H](NC(=O)CCCCCCCCCCCCCCCCCCC(=O)O)C(=O)O)C(=O)N[C@@H](CC(N)=O)C(=O)N[C@@H]([C@@H](C)O)C(=O)N[C@@H](C)C(=O)N[C@@H]([C@@H](C)O)C(=O)N1)[C@@H](C)O)C(=O)N1CCC[C@H]1C(=O)N[C@@H](CO)C(=O)N1CCC[C@H]1C(=O)N[C@H](C(=O)N[C@@H](CC(N)=O)C(=O)N[C@H](C(=O)NCC(=O)N[C@@H](CO)C(=O)N[C@@H](CC(N)=O)C(=O)N[C@H](C(=O)N[C@@H](Cc1ccc(O)cc1)C(N)=O)[C@@H](C)O)C(C)C)[C@@H](C)O
notes: also called 37; compound 37
B6: N^α1-[(4S)-4-carboxy-4-(19-carboxynonadecanoylamino)butanoyl]-[Glu14,Arg17,Pro21,Pro27,Arg35]-h-amylin (peptide)
peptide: {C20 diacid-γGlu}-KCNTATCATQRLAEFLRHSSPNFGAIPSSTNVGSRTY-NH2
modifications: disulfide 2-7
SMILES: CC[C@H](C)[C@H](NC(=O)[C@H](C)NC(=O)CNC(=O)[C@H](Cc1ccccc1)NC(=O)[C@H](CC(N)=O)NC(=O)[C@@H]1CCCN1C(=O)[C@H](CO)NC(=O)[C@H](CO)NC(=O)[C@H](Cc1c[nH]cn1)NC(=O)[C@H](CCCNC(=N)N)NC(=O)[C@H](CC(C)C)NC(=O)[C@H](Cc1ccccc1)NC(=O)[C@H](CCC(=O)O)NC(=O)[C@H](C)NC(=O)[C@H](CC(C)C)NC(=O)[C@H](CCCNC(=N)N)NC(=O)[C@H](CCC(N)=O)NC(=O)[C@@H](NC(=O)[C@H](C)NC(=O)[C@@H]1CSSC[C@H](NC(=O)[C@H](CCCCN)NC(=O)CC[C@H](NC(=O)CCCCCCCCCCCCCCCCCCC(=O)O)C(=O)O)C(=O)N[C@@H](CC(N)=O)C(=O)N[C@@H]([C@@H](C)O)C(=O)N[C@@H](C)C(=O)N[C@@H]([C@@H](C)O)C(=O)N1)[C@@H](C)O)C(=O)N1CCC[C@H]1C(=O)N[C@@H](CO)C(=O)N[C@@H](CO)C(=O)N[C@H](C(=O)N[C@@H](CC(N)=O)C(=O)N[C@H](C(=O)NCC(=O)N[C@@H](CO)C(=O)N[C@@H](CCCNC(=N)N)C(=O)N[C@H](C(=O)N[C@@H](Cc1ccc(O)cc1)C(N)=O)[C@@H](C)O)C(C)C)[C@@H](C)O
notes: also called 16; compound 16

biological target: T1, human amylin receptor (amylin 3(a) …); assay: SPA displacement of 125I-rat amylin, hAmylin 3(a) receptor membranes
Method: The binding assay was performed using scintillation proximity assay (SPA) beads (RPNQ0001) from PerkinElmer and cell membranes from the Amylin 3(a)/CRE-luc cells (as described in Assay (II)) were used. Membranes were prepared in the following way; the cells were rinsed with PBS and incubated with Versene for approximately 5 min before harvesting. The cells were flushed with PBS and the cell-suspension was centrifuged for 5 min at 1000 rpm. Cells were homogenized (ultrathurrax) in a buffer containing 20 mM Na-HEPES and 10 mM EDTA (pH 7.4) and centrifuged at 20.000 rpm for 15 min. The resulting pellet was resuspended, homogenized and centrifuged (20.000 rpm, 15 min) in a buffer containing 20 mM Na-HEPES and 0.1 mM EDTA (pH 7.4, buffer 2). The resulting pellet was resuspended in buffer 2 and protein concentration was measured (BCA protein Assay, Pierce). The homogenate was kept cold during the whole procedure. The membranes were kept at −80° C. until use. The assay was performed in a 384 well Optiplate (PerkinElmer) in a total volume of 40 ul. Membranes were mixed with SPA beads. Final concentration of membranes 35 ng/μL final and SPA beads was 0.05 mg/well. Test-compounds were dissolved in DMSO and further diluted in assay buffer (50 mM Hepes, pH 7.4, 1 mM CaCl2, 5 mM MgCl₂, 0.1% OA and 0.02% Tween20). […] The final mixture was incubated with shaking at 400 rpm for 120 min at 25° C. prior to centrifugation (1500 rpm, 10 min). Samples were analyzed on TopCounter™ (Packard). The IC₅₀ was calculated using (one site binding competition analysis) GraphPad Prism5 as a measure of receptor affinity.

IC50 [nM]	Binder
0.674	B1
0.105	B2
0.204	B3
0.554	B4
0.97	B5
0.894	B6
